# Where a chain is given by its changes, count along the chain named. Where two headings read alike, the source gives them in different places.
# B1: MS-BW-25 (Fab, V domains shown)
# VH: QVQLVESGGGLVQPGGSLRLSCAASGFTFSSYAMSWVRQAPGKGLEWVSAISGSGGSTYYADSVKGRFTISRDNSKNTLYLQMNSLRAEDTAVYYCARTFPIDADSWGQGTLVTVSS
# VL: DIALTQPASVSGSPGQSITISCTGTSSDVGGYNYVSWYQQHPGKAPKLMIYDVSNRPSGVSNRFSGSKSGNTASLTISGLQAEDEADYYCQSYDFINVIVFGGGTKLTVLG
# notes: Fab, FLAG + Strep-tag II; not tied by name
# B2: MS-BW-26 (Fab, V domains shown)
# VH: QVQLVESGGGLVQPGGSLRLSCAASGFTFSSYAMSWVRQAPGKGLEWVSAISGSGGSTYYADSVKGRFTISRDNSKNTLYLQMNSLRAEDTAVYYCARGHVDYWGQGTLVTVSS
# VL: B1 VL with I96V, N97R, V98F, I99M
# notes: as for B1
# B3: MS-BW-27 (Fab, V domains shown)
# VH: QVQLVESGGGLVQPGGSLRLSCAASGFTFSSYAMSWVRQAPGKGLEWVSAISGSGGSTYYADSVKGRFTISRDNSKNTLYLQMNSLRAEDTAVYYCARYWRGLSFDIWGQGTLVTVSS
# VL: B1 VL with I96Y, N97K, V98F, I99N
# notes: as for B1
# B4: MS-BW-44 (Fab, V domains shown)
# VH: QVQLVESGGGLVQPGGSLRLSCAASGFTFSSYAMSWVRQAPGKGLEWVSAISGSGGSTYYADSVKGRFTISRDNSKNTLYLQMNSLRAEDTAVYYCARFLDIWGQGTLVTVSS
# VL: B1 VL with I96V, N97R, V98F, I99M
# notes: Fab: heavy chain of MS-BW-3 with light chain of MS-BW-26; not tied by name
# B5: MS-BW-2 (Fab, V domains shown)
# VH: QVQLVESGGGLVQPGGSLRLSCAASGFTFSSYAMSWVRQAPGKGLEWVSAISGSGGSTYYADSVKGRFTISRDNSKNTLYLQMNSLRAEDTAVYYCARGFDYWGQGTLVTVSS
# VL: B1 VL with I96K, N97T, V98Y, I99L
# notes: as for B1
# B6: MS-BW-1 (Fab, V domains shown)
# VH: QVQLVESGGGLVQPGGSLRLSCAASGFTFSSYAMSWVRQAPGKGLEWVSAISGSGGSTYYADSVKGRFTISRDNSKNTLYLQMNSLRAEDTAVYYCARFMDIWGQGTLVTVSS
# VL: B1 VL with F95Y, I96Q, N97Q, V98F, I99T
# notes: as for B1
# B7: MS-BW-44-2-16 (Fab, V domains shown)
# VH: QVQLVESGGGLVQPGGSLRLSCAASGFTFSSYAMSWVRQAPGKGLEWVSGISGNGVLIFYADSVKGRFTISRDNSKNTLYLQMNSLRAEDTAVYYCARWFDVWGQGTLVTVSS
# VL: B1 VL with I96V, N97R, V98F, I99M
# notes: Fab
# B8: MS-BW-44-6 (Fab, V domains shown)
# VH: B7 VH with S30N, G50V, V56S, L57N, I58T, F59Y, W99F, F100L, V102I
# VL: B1 VL with I96V, N97R, V98F, I99M
# notes: Fab; MS-BW-44 with modified HCDR1 and HCDR2 cassettes
# B9: MS-BW-44-2 (Fab, V domains shown)
# VH: B7 VH with W99F, F100L, V102I
# VL: B1 VL with I96V, N97R, V98F, I99M
# notes: Fab; MS-BW-44 with a modified HCDR2 cassette
# B10: MS-BW-44-2-15 (Fab, V domains shown)
# VH: B7 VH with V102H
# VL: B1 VL with I96V, N97R, V98F, I99M
# notes: Fab
# B11: MS-BW-28 (Fab, V domains shown)
# VH: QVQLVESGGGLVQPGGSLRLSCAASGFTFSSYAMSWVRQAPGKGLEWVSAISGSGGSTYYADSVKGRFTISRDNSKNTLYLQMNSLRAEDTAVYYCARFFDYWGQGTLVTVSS
# VL: B1 VL with I96R, N97R, V98F, I99S
# notes: as for B1
# B12: MS-BW-38 (Fab, V domains shown)
# VH: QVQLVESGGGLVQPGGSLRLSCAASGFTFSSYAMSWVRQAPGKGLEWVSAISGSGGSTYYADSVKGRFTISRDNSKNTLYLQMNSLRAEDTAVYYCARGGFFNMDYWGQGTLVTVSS
# VL: B1 VL with I96T, N97Y, V98G, I99S
# notes: as for B1
# B13: MS-BW-14 (Fab, V domains shown)
# VH: QVQLVQSGAEVKKPGSSVKVSCKASGGTFSSYAISWVRQAPGQGLEWMGGIIPIFGTANYAQKFQGRVTITADESTSTAYMELSSLRSEDTAVYYCARWSDQSYHYYWHPYFDVWGQGTLVTVSS
# VL: DIVLTQPPSVSGAPGQRVTISCSGSSSNIGSNYVSWYQQLPGTAPKLLIYDNNQRPSGVPDRFSGSKSGTSASLAITGLQSEDEADYYCQSWDLEPYVFGGGTKLTVLG
# notes: Fab, FLAG + Strep-tag II; not tied by name; also called MS-BW-14 Fab
# B14: MS-BW-3 IgG1 (antibody, V domains shown)
# VH: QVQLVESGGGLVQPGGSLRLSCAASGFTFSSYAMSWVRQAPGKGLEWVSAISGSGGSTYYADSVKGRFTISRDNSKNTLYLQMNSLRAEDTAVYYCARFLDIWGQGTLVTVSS
# VL: DIALTQPASVSGSPGQSITISCTGTSSDVGGYNYVSWYQQHPGKAPKLMIYDVSNRPSGVSNRFSGSKSGNTASLTISGLQAEDEADYYCQSYDFLRFSVFGGGTKLTVL
# notes: Variable regions of Fab MS-BW-3 cloned into human IgG1 vectors; also called negative control IgG1 MS-BW-3; control antibody; copies: 2 + 2
# B15: MS-BW-21 (Fab, V domains shown)
# VH: QVQLVQSGAEVKKPGSSVKVSCKASGGTFSSYAISWVRQAPGQGLEWMGGIIPIFGTANYAQKFQGRVTITADESTSTAYMELSSLRSEDTAVYYCARYIGYTNVMDIRPGFYLDYWGQGTLVTVSS
# VL: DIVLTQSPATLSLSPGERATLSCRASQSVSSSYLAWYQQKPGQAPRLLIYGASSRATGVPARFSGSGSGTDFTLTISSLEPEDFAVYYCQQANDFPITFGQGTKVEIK
# B16: MS-BW-17-1 (Fab, V domains shown)
# VH: QVQLVQSGAEVKKPGESLKISCKGSGYSFTSYWIGWVRQMPGKGLEWMGIIYPGDSDTRYSPSFQGQVTISADKSISTAYLQWSSLKASDTAMYYCARLTNYFDSIYYDHWGQGTLVTVSS
# VL: DIALTQPASVSGSPGQSITISCTGTSSDVGGYNYVSWYQQHPGKAPKLMIYDVSNRPSGVSNRFSGSKSGNTASLTISGLQAEDEADYYCQAFDVAPNGKVFGGGTKLTVLG
# notes: Fab from LCDR3 optimization of MS-BW-17; also called MS-BW-17-1 Fab; BW-17-1 Fab
# B17: MS-BW-17-1 IgG1 (antibody, V domains shown)
# VH: B16 VH
# VL: DIALTQPASVSGSPGQSITISCTGTSSDVGGYNYVSWYQQHPGKAPKLMIYDVSNRPSGVSNRFSGSKSGNTASLTISGLQAEDEADYYCQAFDVAPNGKVFGGGTKLTVL
# notes: Fab MS-BW-17-1 converted to bivalent human IgG1
# B18: MS-BW-39 (Fab, V domains shown)
# VH: QVQLVQSGAEVKKPGSSVKVSCKASGGTFSSYAISWVRQAPGQGLEWMGGIIPIFGTANYAQKFQGRVTITADESTSTAYMELSSLRSEDTAVYYCARGYIPYHLFDYWGQGTLVTVSS
# VL: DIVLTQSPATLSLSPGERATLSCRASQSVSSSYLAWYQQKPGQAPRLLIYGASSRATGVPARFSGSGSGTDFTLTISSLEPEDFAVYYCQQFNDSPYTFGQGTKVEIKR
# notes: as for B1
# Assays:
# [1] = target: T1, human TIMP-1 (human, UniProt P01033 24-207); test: cell-based or functional assay
# [2] = target: T1, human TIMP-1; test: cell-based or functional assay; remark: listed apart in the source
# [3] = target: T2, rat TIMP-1 (rat, UniProt P30120 24-217); test: cell-based or functional assay
# T2 sequence (P30120 24-217 limits assumed): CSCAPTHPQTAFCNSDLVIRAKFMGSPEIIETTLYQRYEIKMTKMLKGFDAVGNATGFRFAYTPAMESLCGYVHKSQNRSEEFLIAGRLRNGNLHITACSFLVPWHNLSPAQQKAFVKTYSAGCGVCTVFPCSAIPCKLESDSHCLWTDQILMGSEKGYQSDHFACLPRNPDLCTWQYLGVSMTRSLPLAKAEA
# [4] = target: T1, human TIMP-1; test: SPR (BIAcore), TIMP-1 coupled to chip, monovalent Fab
# Procedure: (§1) For affinity determination, monomeric fractions of affinity and SEC purified Fab fragments or purified IgG1 molecules were used. All experiments were conducted in HBS buffer at a flow rate of 20 μl/min at 25° C. on a BIAcore™ instrument. Antigens in 100 mM sodium acetate pH 5.0 were coupled to a CM 5 sensor chip using standard EDC-NHS coupling chemistry. […] All sensograms were fitted globally using BIA evaluation software. For monovalent Fab fragments a monovalent fit (Langmuir binding) and for IgGs a bivalent fit was applied.
# [5] = target: T2, rat TIMP-1; test: as above
# Procedure: as §1
# [6] = target: T1, human TIMP-1; test: as above; remark: listed apart in the source
# Procedure: as §1
# [7] = target: T1, human TIMP-1; test: cell-based or functional assay; remark: listed apart in the source
# [8] = target: T1, human TIMP-1; test: SPR (BIAcore), TIMP-1 coupled to chip, monovalent Fab; remark: listed apart in the source
# Procedure: as §1
# [9] = target: T1, human TIMP-1; test: cell-based or functional assay; remark: listed apart in the source
# [10] = target: T1, human TIMP-1; test: SPR (BIAcore), TIMP-1 coupled to chip, monovalent Fab; remark: listed apart in the source
# Procedure: as §1
# [11] = target: T1, human TIMP-1; test: cell-based or functional assay; remark: listed apart in the source
# [12] = target: T1, human TIMP-1; test: SPR (BIAcore); against the parental Fab (MS-BW-3, 13 nM; not given)
# Procedure: as §1
# [13] = target: T2, rat TIMP-1; test: cell-based or functional assay; remark: listed apart in the source
# [14] = target: T2, rat TIMP-1; test: SPR (BIAcore), TIMP-1 coupled to chip, monovalent Fab; remark: listed apart in the source
# Procedure: as §1
# [15] = target: T2, rat TIMP-1; test: SPR (BIAcore), rat TIMP-1 on chip, monovalent Fab
# Procedure: as §1
# [16] = target: T2, rat TIMP-1; test: cell-based or functional assay; remark: listed apart in the source
# [17] = target: T2, rat TIMP-1; test: cell-based or functional assay; remark: listed apart in the source
# [18] = target: T1, human TIMP-1; test: SPR (BIAcore), human TIMP-1 on chip, IgG1, bivalent fit (avidity)
# Procedure: as §1
# [19] = target: T2, rat TIMP-1; test: cell-based or functional assay; remark: listed apart in the source
# [20] = target: T2, rat TIMP-1; test: SPR (BIAcore), rat TIMP-1 on chip, IgG1, bivalent (avidity)
# Procedure: as §1
# Affinity matured clone MS-BW-17-1 was then converted from a monovalent Fab fragment to a bivalent IgG₁. Protein was produced by stable transfection. Purified protein was subjected to quality control in BIAcore™ and rat TIMP-1/rat MMP-13 assays (FIG. 13).
binder,measurement,setting,value
B1,IC50 in human protease assay,[1],115 nM
same,IC50 in human protease assay,[2],115 nM
same,IC50 in rat protease assay,[3],> 300 nM
same,Kd,[4],25 nM
same,Kd,[5],4520 nM
same,Kd,[6],25 nM
B2,Kd,[6],~100 nM
B3,Kd,[4],~74 nM
same,Kd,[6],~74 nM
B4,"IC50 in human protease assay (modified, 0.4 nM TIMP-1 and MMP-1)",[7],2 nM
same,Kd,[8],2 nM
same,IC50 in human protease assay,[9],4 nM
same,Kd,[10],2 nM
same,IC50 in human protease assay,[11],4 nM
same,"IC50 in human protease assay (modified, decreased amounts of TIMP-1 and MMP-1)",[11],2 nM
same,Kd,[4],2 nM
same,improvement factor (Kd),[12],6.5 fold
B5,IC50 in human protease assay,[1],> 100 nM
same,Kd,[6],180 nM
B6,IC50 in human protease assay,[1],> 100 nM
same,Kd,[6],65 nM
B7,Kd,[10],0.5 nM
same,"IC50 in human protease assay (modified, decreased TIMP-1 and MMP-1)",[11],0.3 nM
B8,"IC50 in human protease assay (modified, 0.4 nM TIMP-1 and MMP-1)",[7],0.2 nM
same,Kd,[8],0.6 nM
same,Kd,[10],0.6 nM
same,"IC50 in human protease assay (modified, decreased TIMP-1 and MMP-1)",[11],0.2 nM
B9,"IC50 in human protease assay (modified, 0.4 nM TIMP-1 and MMP-1)",[7],0.4 nM
same,Kd,[8],0.5 nM
same,Kd,[10],0.5 nM
same,"IC50 in human protease assay (modified, decreased TIMP-1 and MMP-1)",[11],0.4 nM
B10,Kd,[10],0.3 nM
same,"IC50 in human protease assay (modified, decreased TIMP-1 and MMP-1)",[11],0.2 nM
B11,IC50 in human protease assay,[1],22 nM
same,Kd,[6],10 nM
B12,IC50 in rat protease assay,[13],> 300 nM
same,Kd,[14],~353 nM
same,IC50 in human protease assay,[2],~11 nM
same,IC50 in rat protease assay,[3],> 300 nM
same,Kd,[4],~3 nM
same,Kd,[5],~353 nM
B13,IC50 in rat protease assay,[13],14 nM
same,Kd,[15],13 nM
same,Kd,[14],10 nM
same,IC50 in rat protease assay,[16],14 nM
same,"IC50 (50 % reversal of the inhibition of rat MMP-13 by rat TIMP-1, fluorogenic peptide substrate assay)",[17],~11 nM
same,Kd,[5],10 nM
B14,Kd,[18],~0.4 nM
B15,IC50 in rat protease assay,[13],67 nM
same,Kd,[14],36 nM
same,IC50 in human protease assay,[2],> 300 nM
same,IC50 in rat protease assay,[3],67 nM
same,Kd,[4],520 nM
same,Kd,[5],36 nM
B16,IC50 in rat protease assay,[16],1.6 nM
same,"IC50 (50 % reversal of the inhibition of rat MMP-13 by rat TIMP-1, fluorogenic peptide substrate assay)",[19],~1.3 nM
same,Kd,[5],0.8 nM
B17,Kd,[20],0.04 nM
same,"IC50 (50 % reversal of the inhibition of rat MMP-13 by rat TIMP-1, fluorogenic peptide substrate assay)",[19],~0.9 nM
B18,IC50 in rat protease assay,[13],> 100 nM
same,Kd,[14],~108 nM
same,IC50 in rat protease assay,[3],> 100 nM
same,Kd,[5],~108 nM

# Reference: patent publication US20140086935A1 (Bayer, published 2014)
